What was measured:
[1] = target: T1, human CD8 alpha (CD8A) on primary human CD8+ T cells (human, UniProt P01732 22-235); experiment: flow cytometry, human CD8+ T cells, 2 uM FN3
T1 construct: whole, on cells; also called hCD8A
Experimental: (§1) Binding of the 190 ELISA hits to human and cynomologous monkey primary CD8 T cells was assessed by flow cytometry. The FN3 domain molecules were diluted to 2 μM and 0.2 μM in PBS and incubated with human or cynomologous monkey CD8+ T cells in 96-well format. After 1 hour at 4 C, the cells were washed once with PBS and then resuspended with an anti-FN3 domain antibody (PAB25) solution. Following this incubation, the cells were washed twice with PBS and a PE conjugated secondary antibody and a viability dye were added. Finally, cells were washed and resuspended in PBS for flow cytometric analysis using a BD Canto Instrument. Cells were gating on live cells and median fluorescence intensity of the bound Centyrins (PE channel) was calculated using Cytobank software.

[2] = target: T2, cynomolgus monkey CD8A on primary cynomolgus monkey CD8+ T cells (cynomolgus monkey, UniProt P01732 23-235 (human entry)); experiment: flow cytometry, cyno CD8+ T cells, 0.2 uM FN3
T2 construct: also called Cyno CD8alpha
T2 sequence (P01732 other isoform, or with tags, fused parts or gaps limits assumed): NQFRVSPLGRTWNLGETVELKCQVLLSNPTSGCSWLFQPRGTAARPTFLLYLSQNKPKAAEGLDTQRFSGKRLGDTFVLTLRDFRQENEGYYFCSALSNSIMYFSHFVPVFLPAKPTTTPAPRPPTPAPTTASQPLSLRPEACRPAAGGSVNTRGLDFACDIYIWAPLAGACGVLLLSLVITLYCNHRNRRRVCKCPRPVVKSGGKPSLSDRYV
Experimental: as §1

[3] = target: T1, human CD8 alpha (CD8A) on primary human …; experiment: flow cytometry, human CD8+ T cells, 0.2 uM FN3
Experimental: as §1

[4] = target: T2, cynomolgus monkey CD8A on primary …; experiment: flow cytometry, cyno CD8+ T cells, 2 uM FN3
Experimental: as §1

[5] = target: T3, In house human CD8A-Fc (human, UniProt P01732 22-182, limits assumed); experiment: SPR (ProteOn), captured hCD8A-Fc
T3 construct: Captured on goat anti-human Fc on a ProteOn GLC chip; also called hCD8A-Fc; recombinant human CD8 alpha; not shown: linker with flag (and polyhistidine) tag and Fc of human IgG1
T3 sequence (P01732 22-182 limits assumed): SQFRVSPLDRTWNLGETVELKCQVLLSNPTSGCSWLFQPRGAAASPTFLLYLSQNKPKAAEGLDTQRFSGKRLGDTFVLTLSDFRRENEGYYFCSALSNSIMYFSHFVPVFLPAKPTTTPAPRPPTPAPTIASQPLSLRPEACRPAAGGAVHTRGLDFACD
Experimental: Purified anti-CD8A FN3 domains were subjected to off-rate analysis using a Proteon surface plasmon resonance instrument in order to pick clones with the slowest off-rates for further characterization.
The immobilized GAH-Fc IgG densities averaged about 6000 Response Units (Ru) with less than 1% variation among different channels. In house human CD8A-Fc was captured in vertical orientation at 3 different ligand densities, 10, 5, 2.5 μg/ml for 5 minutes at 30 ul/minute flowrate. All FN3 domains were normalized to a 3 μM concentration, and tested for binding in horizontal orientation. All 6 analyte channels were used for FN3 domains to maximize the screening throughput. The dissociation phase was monitored for 15 minutes at a flow rate of 100 μl/min using PBST as running buffer. […] Data analyses were performed using Bio-Rad ProteOn Manager software (version 3.1.0.6). Raw data were double referenced by subtraction of the interspot (empty chip surface, no protein immobilized or captured) signals to correct the non-specific binding of the FN3 domain to the pre-coated GAH-Fc IgG surface, followed by a double correction using empty channel L6 where no hCD8A-Fc was captured. The processed binding data were locally fit to a 1:1 simple Langmuir binding model to extract the koff for each FN3 domain binding to captured hCD8A-Fc.

T1 sequence (P01732 22-235): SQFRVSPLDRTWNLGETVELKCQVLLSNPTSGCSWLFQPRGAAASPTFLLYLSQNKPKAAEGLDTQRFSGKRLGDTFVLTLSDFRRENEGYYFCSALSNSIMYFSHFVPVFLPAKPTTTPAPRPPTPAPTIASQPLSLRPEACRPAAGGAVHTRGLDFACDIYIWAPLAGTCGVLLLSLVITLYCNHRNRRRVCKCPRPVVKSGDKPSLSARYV

Binder	Human T-cell Binding 2 uM (MFI) [1]	Cyno T-cell Binding 0.2 uM (MFI) [2]	Human T-cell Binding 0.2 uM (MFI) [3]	Cyno T-cell Binding 2 uM (MFI) [4]	koff [5]
P283AR9P1362_D7 (designed binder, FN3 domain) LPAPKNLVVSRVTEDSARLSWVKRATSFDSFLIQYQESEKVGEAIVLTVPGSERSYDLTGLKPGTEYTVSIYGVDVKYDIDSRPISSNPLSAIFTT	17300 MFI	4850 MFI	3350 MFI	27500 MFI	0.000118 s⁻¹
P283AR9P1362_B8 (designed binder, FN3 domain) LPAPKNLVVSRVTEDSARLSWWTSPLPFDSFLIQYQESEKVGEAIVLTVPGSERSYDLTGLKPGTEYTVSIYGVDVKYDIDSRPISSNPLSAIFTT	5740 MFI	2270 MFI	1580 MFI	12900 MFI	0.000648 s⁻¹
P283AR9P1362_C12 (designed binder, FN3 domain) LPAPKNLVVSRVTEDSARLSWAKNLHSFDSFLIQYQESEKVGEAIVLTVPGSERSYDLTGLKPGTEYTVSIYGVDVKYDIDSRPISSNPLSAIFTT	7060 MFI	3830 MFI	2620 MFI	14800 MFI	9.94e-05 s⁻¹
P283AR9P1362_A4 (designed binder, FN3 domain) LPAPKNLVVSRVTEDSARLSWIGHDSGFDSFLIQYQESEKVGEAIVLTVPGSERSYDLTGLKPGTEYTVSIYGVDVKYDIDSRPISSNPLSAIFTT	6310 MFI	4400 MFI	2540 MFI	21200 MFI	0.000302 s⁻¹
P283AR9P1362_D3 (designed binder, FN3 domain) LPAPKNLVVSRVTEDSARLSWPVESNAFDSFLIQYQESEKVGEAIVLTVPGSERSYDLTGLKPGTEYTVSIYGVDVEYDQHGRPRWSNPLSAIFTT	9500 MFI	6050 MFI	3480 MFI	34600 MFI	0.000125 s⁻¹
P283AR9P1362_D4 (designed binder, FN3 domain) LPAPKNLVVSRVTEDSARLSWVREHDSFDSFLIQYQESEKVGEAIVLTVPGSERSYDLTGLKPGTEYTVSIYGVDVKYDIDSRPISSNPLSAIFTT	9830 MFI	4100 MFI	2980 MFI	25700 MFI	9.72e-05 s⁻¹
P282AR9P1356_H6 (designed binder, FN3 domain) LPAPKNLVVSRVTEDSARLSWRKRANSFDSFLIQYQESEKVGEAIVLTVPGSERSYDLTGLKPGTEYTVSIYGVHVEYDQHGRPRWSNPLSAIFTT	6650 MFI	3200 MFI	2640 MFI	14400 MFI	8.08e-05 s⁻¹
P283AR9P1362_D6 (designed binder, FN3 domain) LPAPKNLVVSRVTEDSARLSWAKRPGAFDSFLIQYQESEKVGEAIVLTVPGSERSYDLTGLKPGTEYTVSIYGVDVKYDIDSRPISSNPLSAIFTT	13700 MFI	7720 MFI	3660 MFI	33500 MFI	2.64e-05 s⁻¹
P283AR9P1362_F2 (designed binder, FN3 domain) LPAPKNLVVSRVTEDSARLSWRKKDHPFDSFLIQYQESEKVGEAIVLTVPGSERSYDLTGLKPGTEYTVSIYGVDVKYDIDSRPISSNPLSAIFTT	9620 MFI	5520 MFI	1370 MFI	26400 MFI	0.00211 s⁻¹
P283AR9P1362_E9 (designed binder, FN3 domain) LPAPKNLVVSRVTEDSARLSWVPSPWGFDSFLIQYQESEKVGEAIVLTVPGSERSYDLTGLKPGTEYTVSIYGVDVKYDIDSRPISSNPLSAIFTT	6180 MFI	2840 MFI	2010 MFI	15900 MFI	0.000327 s⁻¹

Source: patent US20210032312A1 (Janssen / Centocor, published 2021)
